Reference: patent US20120329708A1 (INDIANA UNIVERSITY RESEARCH AND TECHNOLOGY, published 2012)
*1 amine or outer side, *2 acyl side, *3 side chain or, on linkers, in order; H or OH if unused. Where no end group is shown, it is not given here. Side-chain parts run from the residue outwards. [ ]: non-standard residue; d: D form. The star is where a group is joined. 40K‑TE PEG = 40 kDa PEG attached to Cys by thioether; γGlu = O=C(O)[C@H](CCC(=O)[*:2])N[*:1]; Palmitoyl = CCCCCCCCCCCCCCCC(=O)*; Morn = not defined here; Aib = CC(C)(N)C(=O)O

T1: human GIPR (CHO-K1 cells stably expressing human GIPR) (human, UniProt P48546 22-466)
T1 sequence (looked up): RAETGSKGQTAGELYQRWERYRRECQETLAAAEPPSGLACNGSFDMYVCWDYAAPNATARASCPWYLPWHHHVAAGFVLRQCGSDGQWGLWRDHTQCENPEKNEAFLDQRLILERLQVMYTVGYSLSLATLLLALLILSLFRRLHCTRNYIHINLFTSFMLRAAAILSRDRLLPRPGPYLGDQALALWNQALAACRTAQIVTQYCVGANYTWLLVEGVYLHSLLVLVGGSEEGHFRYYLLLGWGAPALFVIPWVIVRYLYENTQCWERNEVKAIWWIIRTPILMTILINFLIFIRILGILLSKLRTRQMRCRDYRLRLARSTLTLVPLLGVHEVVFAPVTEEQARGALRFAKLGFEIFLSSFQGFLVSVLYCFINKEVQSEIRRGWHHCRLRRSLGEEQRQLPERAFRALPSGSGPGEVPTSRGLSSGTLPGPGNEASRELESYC

T2: GIP receptor (procedure of Example 3)
T2 sequence (P48546 whole entry, species assumed, looked up): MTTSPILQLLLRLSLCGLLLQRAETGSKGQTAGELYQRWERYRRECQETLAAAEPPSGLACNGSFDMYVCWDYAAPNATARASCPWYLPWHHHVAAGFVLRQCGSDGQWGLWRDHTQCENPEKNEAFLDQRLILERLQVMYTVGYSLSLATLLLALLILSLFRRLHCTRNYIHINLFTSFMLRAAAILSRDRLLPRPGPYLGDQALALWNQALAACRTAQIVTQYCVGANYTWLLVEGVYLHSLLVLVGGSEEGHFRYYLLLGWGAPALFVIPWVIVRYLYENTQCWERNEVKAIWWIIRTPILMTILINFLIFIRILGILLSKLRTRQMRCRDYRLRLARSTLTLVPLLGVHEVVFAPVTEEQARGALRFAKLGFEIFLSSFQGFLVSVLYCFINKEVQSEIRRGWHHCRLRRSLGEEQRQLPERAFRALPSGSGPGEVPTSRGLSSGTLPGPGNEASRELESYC

B1: peptide of SEQ ID NO: 17 (peptide)
peptide: H[Aib]QGTFTSDK([γGlu-γGlu-Palmitoyl])SKYLD[Aib]RAAQDFVQWLMNTK[γGlu]-NH2
modifications: N-terminus assumed
SMILES: CCCCCCCCCCCCCCCC(=O)N[C@@H](CCC(=O)N[C@@H](CCC(=O)NCCCC[C@H](NC(=O)[C@H](CC(=O)O)NC(=O)[C@H](CO)NC(=O)[C@@H](NC(=O)[C@H](Cc1ccccc1)NC(=O)[C@@H](NC(=O)CNC(=O)[C@H](CCC(N)=O)NC(=O)C(C)(C)NC(=O)[C@@H](N)Cc1c[nH]cn1)[C@@H](C)O)[C@@H](C)O)C(=O)N[C@@H](CO)C(=O)N[C@@H](CCCCN)C(=O)N[C@@H](Cc1ccc(O)cc1)C(=O)N[C@@H](CC(C)C)C(=O)N[C@@H](CC(=O)O)C(=O)NC(C)(C)C(=O)N[C@@H](CCCNC(=N)N)C(=O)N[C@@H](C)C(=O)N[C@@H](C)C(=O)N[C@@H](CCC(N)=O)C(=O)N[C@@H](CC(=O)O)C(=O)N[C@@H](Cc1ccccc1)C(=O)N[C@H](C(=O)N[C@@H](CCC(N)=O)C(=O)N[C@@H](Cc1c[nH]c2ccccc12)C(=O)N[C@@H](CC(C)C)C(=O)N[C@@H](CCSC)C(=O)N[C@@H](CC(N)=O)C(=O)N[C@H](C(=O)N[C@@H](CCCCN)C(=O)N[C@@H](CCC(N)=O)C(=O)O)[C@@H](C)O)C(C)C)C(=O)O)C(=O)O
B2: peptide of SEQ ID NO: 15 (peptide)
peptide: H[Aib]QGTFTSDK([γGlu-γGlu-Palmitoyl])SKYLD[Aib]RAAQDFVQWL[Morn]DTKQ-OH
modifications: not fully specified; printed as HaibQGTFTSDK(γGlu-γGlu-C16)SKYLDaibRAAQDFVQWLMornDTKQ-acid; reading uncertain
B3: peptide of SEQ ID NO: 14 (peptide)
peptide: HSQGTFTSDKSKYLDERAAQDFVQWLLDTKX
modifications: s at position 2 (lower case, presumably D-Ser); K(γGlu-C16) at position 10 (Lys acylated with C16 via γGlu spacer); C-terminal γGlu; C-terminal amide
B4: peptide of SEQ ID NO: 16 (peptide)
peptide: H[Aib]QGTFTSDK([γGlu-γGlu-Palmitoyl])SKYLD[Aib]RAAQDFVQWLLDTKQ-OH
modifications: N-terminus assumed
SMILES: CCCCCCCCCCCCCCCC(=O)N[C@@H](CCC(=O)N[C@@H](CCC(=O)NCCCC[C@H](NC(=O)[C@H](CC(=O)O)NC(=O)[C@H](CO)NC(=O)[C@@H](NC(=O)[C@H](Cc1ccccc1)NC(=O)[C@@H](NC(=O)CNC(=O)[C@H](CCC(N)=O)NC(=O)C(C)(C)NC(=O)[C@@H](N)Cc1c[nH]cn1)[C@@H](C)O)[C@@H](C)O)C(=O)N[C@@H](CO)C(=O)N[C@@H](CCCCN)C(=O)N[C@@H](Cc1ccc(O)cc1)C(=O)N[C@@H](CC(C)C)C(=O)N[C@@H](CC(=O)O)C(=O)NC(C)(C)C(=O)N[C@@H](CCCNC(=N)N)C(=O)N[C@@H](C)C(=O)N[C@@H](C)C(=O)N[C@@H](CCC(N)=O)C(=O)N[C@@H](CC(=O)O)C(=O)N[C@@H](Cc1ccccc1)C(=O)N[C@H](C(=O)N[C@@H](CCC(N)=O)C(=O)N[C@@H](Cc1c[nH]c2ccccc12)C(=O)N[C@@H](CC(C)C)C(=O)N[C@@H](CC(C)C)C(=O)N[C@@H](CC(=O)O)C(=O)N[C@H](C(=O)N[C@@H](CCCCN)C(=O)N[C@@H](CCC(N)=O)C(=O)O)[C@@H](C)O)C(C)C)C(=O)O)C(=O)O

Columns and labels:
Test in all cases: cell-based or functional assay
[1] = biological target: human GLP-1R (CHO-K1 cells stably expressing human GLP-1R) (human, UniProt P43220 24-463)
[2] = biological target: human GCGR (CHO-K1 cells stably expressing human GCGR) (human, UniProt P47871 26-477)
human GCGR (CHO-K1 cells stably expressing human GCGR), sequence (P47871 26-477): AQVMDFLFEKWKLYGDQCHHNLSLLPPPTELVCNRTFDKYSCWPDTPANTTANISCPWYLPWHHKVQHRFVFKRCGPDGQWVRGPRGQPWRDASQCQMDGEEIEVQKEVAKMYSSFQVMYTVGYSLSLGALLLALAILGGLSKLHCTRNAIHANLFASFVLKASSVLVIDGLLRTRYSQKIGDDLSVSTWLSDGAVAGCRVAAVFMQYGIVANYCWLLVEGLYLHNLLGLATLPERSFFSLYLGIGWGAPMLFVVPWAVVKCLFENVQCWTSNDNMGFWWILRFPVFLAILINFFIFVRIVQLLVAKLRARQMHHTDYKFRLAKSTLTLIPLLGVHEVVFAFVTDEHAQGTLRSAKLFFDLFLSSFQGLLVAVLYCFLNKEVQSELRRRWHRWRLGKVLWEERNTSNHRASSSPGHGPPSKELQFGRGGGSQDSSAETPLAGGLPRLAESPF

[3] = biological target: T1, human GIPR (CHO-K1 cells stably …)
[4] = biological target: T2, GIP receptor (procedure of Example 3)
[5] = biological target: GLP-1 receptor (HEK293 cells co-transfected with the GLP-1 receptor and a CRE-luciferase gene)
[6] = biological target: glucagon receptor (HEK293 cells co-transfected with the glucagon receptor and a CRE-luciferase gene)

| Binder | EC50 (nM) at GLP-1 receptor (cAMP production, DiscoveRx Hithunter cAMP XS+, CHO-K1) [1] | EC50 (nM) at glucagon receptor (cAMP production, DiscoveRx Hithunter cAMP XS+, CHO-K1) [2] | EC50 (nM) at GIP receptor (cAMP production, DiscoveRx Hithunter cAMP XS+, CHO-K1) [3] | EC50 (nM) at GIP receptor (procedure of Example 3) [4] | EC50 (nM) at GLP-1 receptor (cAMP-induced luciferase reporter, HEK293) [5] | EC50 (nM) at glucagon receptor (cAMP-induced luciferase reporter, HEK293) [6] |
| --- | --- | --- | --- | --- | --- | --- |
| B1 | 0.075 nM | 0.11 nM | > 2000 nM | – | – | – |
| H[Aib]QGTFTSDYSKYLDERRA[Aib]EFVC(40K‑TE PEG)WLLDTK[γGlu]-NH2 [peptide of SEQ ID NO: 13] | – | – | – | 140 nM | 0.567 nM | 2.81 nM |
| H[Aib]QGTFTSDK([γGlu-γGlu-Palmitoyl])SKYLD[Aib]RAAQDFVQWLMDTK[γGlu]-NH2 [peptide of SEQ ID NO: 12] | – | – | – | 12.8 nM | 0.003 nM | 0.01 nM |
| B2 | – | – | – | 1.9 nM | 0.005 nM | 0.006 nM |
| B3 | – | – | – | 976 nM | 0.003 nM | 0.003 nM |
| B4 | – | – | – | 1.04 nM | 0.019 nM | 0.015 nM |
